B1: GBS #3 (dsDNA)
DNA 1: AGGGGAGATATGGGTGGGCTGTGGAACGC
DNA 2: GCGTTCCACAGCCCACCCATATCTCCCCT
B2: GBS #5 (dsDNA)
DNA 1: AAGGTCGAGTTGGGAGGTCTTGGATGCGG
DNA 2: CCGCATCCAAGACCTCCCAACTCGACCTT
B3: GBS #4 (dsDNA)
DNA 1: AGCATCCCGGGATCACCCACCGCGCCGGC
DNA 2: GCCGGCGCGGTGGGTGATCCCGGGATGCT
B4: GBS #2 (dsDNA)
DNA 1: GGCGGCGACTTGGGTGGGCCGAGGAGGCA
DNA 2: TGCCTCCTCGGCCCACCCAAGTCGCCGCC
B5: GBS #1 (dsDNA)
DNA 1: CTCTGGCTCAGACCACCCTGCCTGCCCTT
DNA 2: AAGGGCAGGCAGGGTGGTCTGAGCCAGAG
B6: GBS #6 (dsDNA)
DNA 1: TCTACACACAGACCACACAGGCAAAGCTC
DNA 2: GAGCTTTGCCTGTGTGGTCTGTGTGTAGA

Each binder was assayed against GLI1 (aa 211-1106) (human, UniProt P08151 211-1106) (assay: EMSA; Roche DIG gel shift kit binding buffer (1X from 5X; composition, salt and pH not given), 155 fmol probe, 20 pmol competitor, 4 C 20 min, 5% TBE gel). Settings: protein: recombinant; label: digoxigenin (or 32P); blunt.
Sequence of GLI1 (aa 211-1106) (P08151 211-1106): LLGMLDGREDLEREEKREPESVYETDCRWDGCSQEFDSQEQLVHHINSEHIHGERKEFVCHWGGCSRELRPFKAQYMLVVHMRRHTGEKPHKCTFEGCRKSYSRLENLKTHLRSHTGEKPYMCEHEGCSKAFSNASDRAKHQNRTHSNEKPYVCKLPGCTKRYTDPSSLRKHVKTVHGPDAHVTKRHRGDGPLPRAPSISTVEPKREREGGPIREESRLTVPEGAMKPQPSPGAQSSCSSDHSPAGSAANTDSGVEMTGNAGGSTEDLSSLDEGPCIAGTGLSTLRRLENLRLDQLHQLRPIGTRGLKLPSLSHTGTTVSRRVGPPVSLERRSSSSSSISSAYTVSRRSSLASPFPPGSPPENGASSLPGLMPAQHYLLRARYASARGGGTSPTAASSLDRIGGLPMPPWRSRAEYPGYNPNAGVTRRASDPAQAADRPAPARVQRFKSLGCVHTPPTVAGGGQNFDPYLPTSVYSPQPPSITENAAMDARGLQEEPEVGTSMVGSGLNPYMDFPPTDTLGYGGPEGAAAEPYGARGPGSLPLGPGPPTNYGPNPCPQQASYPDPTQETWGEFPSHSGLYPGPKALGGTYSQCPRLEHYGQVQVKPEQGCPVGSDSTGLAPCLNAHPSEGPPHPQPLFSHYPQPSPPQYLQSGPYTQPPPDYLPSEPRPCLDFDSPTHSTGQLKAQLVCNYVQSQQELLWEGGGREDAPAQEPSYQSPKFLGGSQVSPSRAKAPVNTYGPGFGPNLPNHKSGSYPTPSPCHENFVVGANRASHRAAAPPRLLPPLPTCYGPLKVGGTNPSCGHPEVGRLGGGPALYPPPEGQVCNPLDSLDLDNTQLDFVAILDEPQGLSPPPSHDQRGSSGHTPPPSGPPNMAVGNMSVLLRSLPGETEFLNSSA

Binder | binding result
B1 | binds
B2 | binds
B3 | binds
B4 | binds
B5 | binds
B6 | binds

The binders below were run against GLI2 (aa 84-355) (human, UniProt P10070-1 84-355) in the same assay as above. Settings: protein: recombinant; tags: 6xHis; label: digoxigenin (or 32P); blunt.
Sequence of GLI2 (aa 84-355) (P10070 412-683): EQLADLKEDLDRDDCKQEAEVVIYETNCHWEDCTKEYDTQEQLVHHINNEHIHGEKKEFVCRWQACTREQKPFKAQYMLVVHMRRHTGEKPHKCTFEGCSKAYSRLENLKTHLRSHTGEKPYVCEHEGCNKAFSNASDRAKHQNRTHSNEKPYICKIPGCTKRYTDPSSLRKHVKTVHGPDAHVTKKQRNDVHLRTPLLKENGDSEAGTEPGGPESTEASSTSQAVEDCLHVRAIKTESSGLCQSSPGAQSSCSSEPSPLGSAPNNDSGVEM

Binder | binding result
B1 | binds
B2 | binds
B3 | binds
B4 | binds
B5 | binds
B6 | binds

From paper PMC6570425, “Regulation of GLI1 by cis DNA elements and epigenetic marks”
